Measured values from patent US6429014B1, “Monoterpene synthases from grand fir (Abies grandis)” (Washington State University Research Foundation, priority 1997, dated 2002).

B1: ag9: recombinant terpinolene synthase from Grand fir encoded by clone ag9 (SEQ ID NO:77; protein SEQ ID NO:78) (protein, listed as Abies grandis)
chain: MALVSILPLSSKSVLHKSWIVSTYEHKAISRTIPNLGLRGRGKSVTHSLRMSLSTAVSDDHGVQRRIVEFHSNLWDDDFIQSLSTPYGAPSYRERADRLIVEVKGIFTSISAEDGELITPLNDLIQRLLMVDNVERLGIDRHFKNEIKAALDYVYSYWNEKGIGSGSDSGVADLNSTALGFRILRLHGYSVSSDVLEHFKEEKEKGQFVCSAIQTEEEIKSVLNLFRASLIAFPGEKVMEEAEIFSKIYLKEALQNIAVSSLSREIEYVLEDGWQTNMPRLETRNYIDVLGENDRDETLYMNMEKLLEIAKLEFNIFHSLQQRELKDLSRWWKDSGFSHLTFSRHRHVEFYALASCIETDRKHSGFRLGFAKMCHLITVLDDIYDTFGTMEELELFTAAFKRWDPSATDLLPEYMKGLYMVVYETVNEIAREADKSQGRETLNDARRAWEAYLDSYMKEAEWISSGYLPTFEEYMETSKVSFGYRIFALQPILTMDVPLTHHILQEIDFPLRFNDLICSILRLKNDTRCYKADRARGEEASCISCYMKENPGSTEEDAINHINAMVNNLIKEVNWELLRQDGTAHIACKKHAFDILKGSLHGYKYRDGFSVANKETKNWVRRTVLESVPL
B2: ag6: recombinant (−)-camphene synthase from Grand fir encoded by clone ag6 (SEQ ID NO:64; protein SEQ ID NO:65) (protein, listed as Abies grandis)
chain: MALLSITPLVSRSCLSSSHEIKALRRTIPTLGICRPGKSVAHSINMCLTSVASTDSVQRRVGNYHSNLWDDDFIQSLISTPYGAPDYRERADRLIGEVKDIMFNFKSLEDGGNDLLQRLLLVDDVERLGIDRHFKKEIKTALDYVNSYWNEKGIGCGRESVVTDLNSTALGLRTLRLHGYTVSSDVLNVFKDKNGQFSSTANIQIEGEIRGVLNLFRASLVAFPGEKVMDEAETFSTKYLREALQKIPASSILSLEIRDVLEYGWHTNLPRLEARNYMDVFGQHTKNKNAAEKLLELAKLEFNIFHSLQERELKHVSRWWKDSGSPEMTFCRHRHVEYYALASCIAFEPQHSGFRLGFTKMSHLITVLDDMYDVFGTVDELELFTATIKRWDPSAMECLPEYMKGVYMMVYHTVNEMARVAEKAQGRDTLNYARQAWEACFDSYMQEAKWIATGYLPTFEEYLENGKVSSAHRPCALQPILTLDIPFPDHILKEVDFPSKLNDLICIILRLRGDTRCYKADRARGEEASSISCYMKDNPGLTEEDALNHINFMIRDAIRELNWELLKPDNSVPITSKKHAFDISRVWHHGYRYRDGYSFANVETKSLVMRTVIEPVPL

Test: Terpene synthase assay and GC-MS / chiral GC product identification of recombinant enzymes expressed from pSBET in E. coli BL21(DE3) (Example 11)
Type: biochemical
Protocol: For functional expression, bacterial strains E. coli BL21(DE3)/pSAG2(M), E. coli BL21(DE3)/pSAG2(R), E. coli BL21(DE3)/pSAG3(R), E. coli BL21(DE3)/pSAG6(M), E. coli BL21(DE3/pSAG6(R), E. coli BL21(DE3)/pSAG8(M), E. coli BL21(DE3)/pSAG9(M), E. coli BL21(DE3)/pSAG11(M) and E. coli BL21(DE3)/SAG11(R) were grown to A600=0.5 at 37° C. in 5 ml of Luria-Bertani medium (Sambrook, J., Fritsch, E. F., and Maniatis, T. (1989) Molecular Cloning: A Laboratory Manual, 2nd Ed., pp. 7.20-7.43, Cold Spring Harbor, N.Y.) supplemented with 30 μg kanamycin/ml. Cultures were then induced by addition of 1 mM isopropyl-1-thio-β-D-galactopyranoside and grown for another 12 h at 20° C. Cells were harvested by centrifugation and disrupted by sonication followed by centrifugation, and the resulting soluble enzyme preparations were assayed for monoterpene, sesquiterpene and diterpene synthase activity using the appropriate radiolabeled substrate as described previously (Bohlmann, J., Steele, C. L., and Croteau, R. (1997) J. Biol. Chem. 272, 21784-21792). This assay involves the isolation and separation of terpene olefins and oxygenated terpenes by column chromatography on silica, followed by scintillation counting to determine conversion rate. GC-MS analysis is employed for product identification, by comparison of retention times and mass spectra to those of authentic standards (Bohlmann, J., Steele, C. L., and Croteau, R. (1997) J. Biol Chem. 272, 21784-21792); assignment of absolute configuration is based upon chiral column capillary GC and matching of retention time to that of the corresponding enantiomer (Lewinsohn, E., Savage, T. J., Gijzen, M., and Croteau, R. (1993) Phytochem. Anal. 4, 220-225). To insure production of sufficient material for identification, the standard assay (Bohlmann, J., Steele, C. L., and Croteau, R. (1997) J. Biol. Chem. 272, 21784-21792) was scaled up by a factor of 20.
Initially, the four pSBET plasmids pSAG6(M), pSAG8(M), pSAG9(M) and pSAG11(M), containing the full-length cDNA inserts of ag6 (SEQ ID NO:64), ag8 (SEQ ID NO:66), ag9 (SEQ ID NO:77) and ag11 (SEQ ID NO:68), respectively, were expressed in E. coli BL21(DE3). Extracts of the induced, transformed bacterial cells were assayed for monoterpene, sesquiterpene and diterpene synthase activity using the corresponding labeled C10, C15 and C20 prenyl diphosphate substrates (Bohlmann, J., Steele, C. L., and Croteau, R. (1997) J. Biol. Chem. 272, 21784-21792). […] Since it is known that the relatively large amino-terminal transit peptide of plant terpene synthases can impair expression of the functional preprotein in E. coli and promote the formation of intractable inclusion bodies (Williams, D. C., McGarvey, D. J., Katahira, E. J., and Croteau, R. (1998) Biochemisiry 37, 12213-12220), the“pseudomature” forms of ag6 (SEQ ID NO:64) and ag11 (SEQ ID NO:68) were prepared by truncation of the cDNAs to insert a starting methionine immediately upstream of their tandem arginine elements (R59R 60 for ag6 (SEQ ID NO:64), R^71R^72 for ag11 (SEQ ID NO:68)) for expression in E. coli BL21(DE3)/pSAG6(R) and E. coli BL21(DE3)/pSAG11(R). Similar truncations of previously characterized ag2.2 (SEQ ID NO:1) (myrcene synthase, R^64R^65) and ag3.18 (SEQ ID NO:3) ((−)-pinene synthase, (SEQ ID NO:5) R^64R^65) (Bohlmann, J., Steele, C. L., and Croteau, R. (1997) J. Biol. Chem. 272, 21784-21792) were prepared for expression from pSBET as controls for the possible alteration of product yield and distribution resulting from truncation.
Monoterpenes generated at preparative scale from geranyl diphosphate by the recombinant enzymes encoded by ag6 (SEQ ID NO:64), ag8 (SEQ ID NO:66), ag9 (SEQ ID NO:77) and ag11 (SEQ ID NO:68) were analyzed by GC-MS and chiral phase (β-cyclodextrin) capillary GC, and identified by comparison of retention times and mass spectra to authentic standards (FIGS. 6-9). […] The enzyme encoded by ag6 (SEQ ID NO:65) is therefore designated as (−)-1S,4R-camphene synthase. […]

[1] = from geranyl diphosphate, preparative scale

Molecule | terpene synthase activity on expression from pSBET in E. coli BL21(DE3) (extracts of induced cells) | (−)-1S,5S-α-pinene share of monoterpene products [1] [%] | (−)-1S,5S-β-pinene share of monoterpene products [1] [%] | (−)-4S-limonene share of monoterpene products [1] [%] | terpinolene share of monoterpene products [1] [%] | (−)-1S,4R-camphene share of monoterpene products [1] [%] | prenyl diphosphate substrate yielding terpene olefin products (C10, C15, C20 tested) (truncated forms pSAG6(R), pSAG11(R) in E. coli BL21(DE3))
B1 | Enzymatic production of terpene olefin(s) was observed | 18 | 10 | 11 | 42 |  | 
B2 |  | 32 |  | 7 |  | 54 | only geranyl diphosphate yielded high levels of terpene olefin products
